The record followed here is article PMC12354898, “Collagen VI microfibril structure reveals mechanism for molecular assembly and clustering of inherited pathogenic mutations” (Nature Communications, 2025).

The test deals with T1, mini-collagen VI α1 chain, ColVIα1^C1C2 (human, UniProt P12109 566-1028).
T1 construct: human collagen VI α1 chain, UniProt P12109 aa 566-1028: nine Gly-X-Y triplets, coiled coil region, C1 and C2 vWA domains; Synthetic gene cloned into pHLSec with AgeI and XhoI; one chain of the disulphide-bonded heterotrimer α1α2α3^C1C2; also called α1 chain of α1α2α3^C1C2; source: Expi293F, co-transfected with the other two chains, secreted; in conditioned media, and purified (Strep-Tactin XT, …)
T1 sequence (looked up): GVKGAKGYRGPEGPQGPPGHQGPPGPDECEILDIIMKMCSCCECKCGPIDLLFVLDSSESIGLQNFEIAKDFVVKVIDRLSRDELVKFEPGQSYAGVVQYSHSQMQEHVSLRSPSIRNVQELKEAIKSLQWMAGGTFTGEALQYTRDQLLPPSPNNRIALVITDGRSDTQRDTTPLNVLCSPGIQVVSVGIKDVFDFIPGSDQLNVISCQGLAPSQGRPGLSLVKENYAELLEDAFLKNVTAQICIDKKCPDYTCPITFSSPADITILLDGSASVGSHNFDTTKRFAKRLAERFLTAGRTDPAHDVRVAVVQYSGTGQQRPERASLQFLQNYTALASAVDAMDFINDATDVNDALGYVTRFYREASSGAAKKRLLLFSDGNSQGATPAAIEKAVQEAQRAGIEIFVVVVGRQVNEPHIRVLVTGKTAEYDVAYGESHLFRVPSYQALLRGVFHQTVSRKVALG
The test is described as follows: pull-down; three chains co-expressed in Expi293F; sequential affinity steps from conditioned media (Strep-Tactin XT for Twin-Strep α2, Ni-Sepharose for His α1, anti-FLAG M2 for α3; Fig. 5f: Twin-strep then His-tag); eluates on reduced and non-reduced SDS-PAGE. Particulars: partners not purified.

B1: mini-collagen VI α2 chain, ColVIα2^C1C2 (domain or fragment, human, UniProt P12110 564-1019, looked up)
chain: GEPGPRGPRGVPGPEGEPGPPGDPGLTECDVMTYVRETCGCCDCEKRCGALDVVFVIDSSESIGYTNFTLEKNFVINVVNRLGAIAKDPKSETGTRVGVVQYSHEGTFEAIQLDDERIDSLSSFKEAVKNLEWIAGGTWTPSALKFAYDRLIKESRRQKTRVFAVVITDGRHDPRDDDLNLRALCDRDVTVTAIGIGDMFHEKHESENLYSIACDKPQQVRNMTLFSDLVAEKFIDDMEDVLCPDPQIVCPDLPCQTELSVAQCTQRPVDIVFLLDGSERLGEQNFHKARRFVEQVARRLTLARRDDDPLNARVALLQFGGPGEQQVAFPLSHNLTAIHEALETTQYLNSFSHVGAGVVHAINAIVRSPRGGARRHAELSFVFLTDGVTGNDSLHESAHSMRKQNVVPTVLALGSDVDMDVLTTLSLGDRAAVFHEKDYDSLAQPGFFDRFIRWIC
notes: human collagen VI α2 chain, UniProt P12110 aa 564-1019: nine Gly-X-Y triplets, coiled coil region, C1 and C2 vWA domains; Synthetic gene cloned into pHLSec with AgeI and XhoI; density for two N-linked glycans on this chain in the cryoEM map; also called α2 chain of α1α2α3^C1C2; source: Expi293F, co-transfected with the other two chains, secreted; in conditioned media, and purified (Strep-Tactin …)
As to B1, the binding result is “binds”.
